# Results: patent US9958461B2, “Detection of protein to protein interactions” (THE GOVERNING COUNCIL OF THE UNIVERSITY OF TORONTO, priority 2013, dated 2018)
# Tests used:
# [1] = tested on: EGFR-Wt; test: MaMTH EGFR-interactor screen, lentiviral preys against EGFR-wildtype bait (interaction score); format: cell-based, human; conditions: ratio of EGFR-Wt mean to EGFR-L858R mean interaction score
# In short: (§1)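 5×GAL4UAS-luciferase HEK293T reporter cells were lentivirally infected with preys (MOI ~0.3-0.4) and puromycin-selected ≥48 h. They were then transfected in triplicate with the EGFR bait, and luciferase was read 24 h later. Score is fold-change over averaged negative-control preys; >1 denotes interaction.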
# [2] = biological target: T1, EGFR-Wt (Homo sapiens, UniProt P00533); test: as above; format: cell-based; conditions: MaMTH interaction score of prey with EGFR-Wt bait, mean
# T1 construct: with the advantage of testing full-length integral membrane proteins; (GGGGS)2 linker-Cub (human ubiquitin aa 35-76)-GAL4(1-147)-mNFkB(364-550) (C); expressed in transfected cells
# In short: as §1
# [3] = biological target: T2, EGFR-L858R (Homo sapiens, UniProt P00533, L858R); test: MaMTH EGFR-interactor screen, lentiviral preys against EGFR-L858R bait (interaction score); format: cell-based; conditions: MaMTH interaction score of prey with EGFR-L858R bait
# T2 construct: with the advantage of testing full-length integral membrane proteins; (GGGGS)2 linker-Cub (human ubiquitin aa 35-76)-GAL4(1-147)-mNFkB(364-550) (C); expressed in transfected cells
# In short: as §1
Molecule,Wt/L858R [1],EGFR-Wt mean [2],EGFR-L858R mean [3]
"SHC4 (protein, UniProt Q6S5L8 1-630, looked up) SHC-transforming protein 4: MRERGQDSLAGLVLYVGLFGHPGMLHRAKYSRFRNESITSLDEGSSGGSVGNKGSPQPPHPALAPHLPTEDATLPSQESPTPLCTLIPRMASMKLANPATLLSLKNFCLGTKEVPRLKLQESRDPGSSGPSSPETSLSRSGTAPPPQQDLVGHRATALTPDSCPLPGPGEPTLRSRQDRHFLQHLLGMGMNYCVRYMGCVEVLQSMRSLDFGMRTQVTREAISRLCEAVPGANGAIKKRKPPVKFLSTVLGKSNLQFSGMNIKLTISTCSLTLMNLDNQQIIANHHMQSISFASGGDPDTTDYVAYVAKDPVNQRACHILECHNGMAQDVISTIGQAFELRFKQYLKNPSLNTSCESEEVHIDSHAEEREDHEYYNEIPGKQPPVGGVSDMRIKVQATEQMAYCPIQCEKLCYLPGNSKCSSVYENCLEQSRAIGNVHPRGVQSQRDTSLLKHTCRVDLFDDPCYINTQALQSTPGSAGNQRSAQPLGSPWHCGKAPETVQPGATAQPASSHSLPHIKQQLWSEECYHGKLSRKAAESLLVKDGDFLVRESATSPGQYVLSGLQGGQAKHLLLVDPEGKVRTKDHVFDNVGHLIRYHMDNSLPIISSGSEVSLKQPVRKDNNPALLHSNK",0.47,5.31,11.39
"LCP2 (protein, UniProt Q13094 1-533, looked up) Lymphocyte cytosolic protein 2: MALRNVPFRSEVLGWDPDSLADYFKKLNYKDCEKAVKKYHIDGARFLNLTENDIQKFPKLRVPILSKLSQEINKNEERRSIFTRKPQVPRFPEETESHEEDNGGWSSFEEDDYESPNDDQDGEDDGDYESPNEEEEAPVEDDADYEPPPSNDEEALQNSILPAKPFPNSNSMYIDRPPSGKTPQQPPVPPQRPMAALPPPPAGRNHSPLPPPQTNHEEPSRSRNHKTAKLPAPSIDRSTKPPLDRSLAPFDREPFTLGKKPPFSDKPSIPAGRSLGEHLPKIQKPPLPPTTERHERSSPLPGKKPPVPKHGWGPDRRENDEDDVHQRPLPQPALLPMSSNTFPSRSTKPSPMNPLPSSHMPGAFSESNSSFPQSASLPPYFSQGPSNRPPIRAEGRNFPLPLPNKPRPPSPAEEENSLNEEWYVSYITRPEAEAALRKINQDGTFLVRDSSKKTTTNPYVLMVLYKDKVYNIQIRYQKESQVYLLGTGLRGKEDFLSVSDIIDYFRKMPLLLIDGKNRGSRYQCTLTHAAGYP",0.43,2.71,6.29
"TNS3 (protein, UniProt Q68CZ2 1-1445, looked up) Tensin-3: MEEGHGLDLTYITERIIAVSFPAGCSEESYLHNLQEVTRMLKSKHGDNYLVLNLSEKRYDLTKLNPKIMDVGWPELHAPPLDKMCTICKAQESWLNSNLQHVVVIHCRGGKGRIGVVISSYMHFTNVSASADQALDRFAMKKFYDDKVSALMQPSQKRYVQFLSGLLSGSVKMNASPLFLHFVILHGTPNFDTGGVCRPFLKLYQAMQPVYTSGIYNVGPENPSRICIVIEPAQLLKGDVMVKCYHKKYRSATRDVIFRLQFHTGAVQGYGLVFGKEDLDNASKDDRFPDYGKVELVFSATPEKIQGSEHLYNDHGVIVDYNTTDPLIRWDSYENLSADGEVLHTQGPVDGSLYAKVRKKSSSDPGIPGGPQAIPATNSPDHSDHTLSVSSDSGHSTASARTDKTEERLAPGTRRGLSAQEKAELDQLLSGFGLEDPGSSLKEMTDARSKYSGTRHVVPAQVHVNGDAALKDRETDILDDEMPHHDLHSVDSLGTLSSSEGPQSAHLGPFTCHKSSQNSLLSDGFGSNVGEDPQGTLVPDLGLGMDGPYERERTFGSREPKQPQPLLRKPSVSAQMQAYGQSSYSTQTWVRQQQMVVAHQYSFAPDGEARLVSRCPADNPGLVQAQPRVPLTPTRGTSSRVAVQRGVGSGPHPPDTQQPSPSKAFKPRFPGDQVVNGAGPELSTGPSPGSPTLDIDQSIEQLNRLILELDPTFEPIPTHMNALGSQANGSVSPDSVGGGLRASSRLPDTGEGPSRATGRQGSSAEQPLGGRLRKLSLGQYDNDAGGQLPFSKCAWGKAGVDYAPNLPPFPSPADVKETMTPGYPQDLDIIDGRILSSKESMCSTPAFPVSPETPYVKTALRHPPFSPPEPPLSSPASQHKGGREPRSCPETLTHAVGMSESPIGPKSTMLRADASSTPSFQQAFASSCTISSNGPGQRRESSSSAERQWVESSPKPMVSLLGSGRPTGSPLSAEFSGTRKDSPVLSCFPPSELQAPFHSHELSLAEPPDSLAPPSSQAFLGFGTAPVGSGLPPEEDLGALLANSHGASPTPSIPLTATGAADNGFLSHNFLTVAPGHSSHHSPGLQGQGVTLPGQPPLPEKKRASEGDRSLGSVSPSSSGFSSPHSGSTISIPFPNVLPDFSKASEAASPLPDSPGDKLVIVKFVQDTSKFWYKADISREQAIAMLKDKEPGSFIVRDSHSFRGAYGLAMKVATPPPSVLQLNKKAGDLANELVRHFLIECTPKGVRLKGCSNEPYFGSLTALVCQHSITPLALPCKLLIPERDPLEEIAESSPQTAANSAAELLKQGAACNVWYLNSVEMESLTGHQAIQKALSITLVQEPPPVSTVVHFKVSAQGITLTDNQRKLFFRRHYPVNSVIFCALDPQDRKWIKDGPSSKVFGFVARKQGSATDNVCHLFAEHDPEQPASAIVNFVSKVMIGSPKKV",0.45,1.39,3.12
"HSPA4 (protein, UniProt P34932 1-840, looked up) Heat shock 70 kDa protein 4: MSVVGIDLGFQSCYVAVARAGGIETIANEYSDRCTPACISFGPKNRSIGAAAKSQVISNAKNTVQGFKRFHGRAFSDPFVEAEKSNLAYDIVQLPTGLTGIKVTYMEEERNFTTEQVTAMLLSKLKETAESVLKKPVVDCVVSVPCFYTDAERRSVMDATQIAGLNCLRLMNETTAVALAYGIYKQDLPALEEKPRNVVFVDMGHSAYQVSVCAFNRGKLKVLATAFDTTLGGRKFDEVLVNHFCEEFGKKYKLDIKSKIRALLRLSQECEKLKKLMSANASDLPLSIECFMNDVDVSGTMNRGKFLEMCNDLLARVEPPLRSVLEQTKLKKEDIYAVEIVGGATRIPAVKEKISKFFGKELSTTLNADEAVTRGCALQCAILSPAFKVREFSITDVVPYPISLRWNSPAEEGSSDCEVFSKNHAAPFSKVLTFYRKEPFTLEAYYSSPQDLPYPDPAIAQFSVQKVTPQSDGSSSKVKVKVRVNVHGIFSVSSASLVEVHKSEENEEPMETDQNAKEEEKMQVDQEEPHVEEQQQQTPAENKAESEEMETSQAGSKDKKMDQPPQAKKAKVKTSTVDLPIENQLLWQIDREMLNLYIENEGKMIMQDKLEKERNDAKNAVEEYVYEMRDKLSGEYEKFVSEDDRNSFTLKLEDTENWLYEDGEDQPKQVYVDKLAELKNLGQPIKIRFQESEERPKLFEELGKQIQQYMKIISSFKNKEDQYDHLDAADMTKVEKSTNEAMEWMNNKLNLQNKQSLTMDPVVKSKEIEAKIKELTSTCSPIISKPKPKVEPPKEEQKNAEQNGPVDGQGDNPGPQAAEQGTDTAVPSDSDKKLPEMDID",0.46,1.13,2.48
"CISH (protein, UniProt Q9NSE2 1-258, looked up) Cytokine-inducible …: MVLCVQGPRPLLAVERTGQRPLWAPSLELPKPVMQPLPAGAFLEEVAEGTPAQTESEPKVLDPEEDLLCIAKTFSYLRESGWYWGSITASEARQHLQKMPEGTFLVRDSTHPSYLFTLSVKTTRGPTNVRIEYADSSFRLDSNCLSRPRILAFPDVVSLVQHYVASCTADTRSDSPDPAPTPALPMPKEDAPSDPALPAPPPATAVHLKLVQPFVRRSSARSLQHLCRLVINRLVADVDCLPLPRRMADYLRQYPFQL",0.49,1.29,2.66
"ARHGEF7 (protein, UniProt Q14155 1-803, looked up) Rho guanine nucleotide …: MNSAEQTVTWLITLGVLESPKKTISDPEGFLQASLKDGVVLCRLLERLLPGTIEKVYPEPRSESECLSNIREFLRGCGASLRLELLFPPSQPPQHLVTTILLSASTFDANDLYQGQNFNKVLSSLVTLNKVTADIGLGSDSVCARPSSHRIKSFDSLGSQSLHTRTSKLFQGQYRSLDMTDNSNNQLVVRAKFNFQQTNEDELSFSKGDVIHVTRVEEGGWWEGTLNGRTGWFPSNYVREVKASEKPVSPKSGTLKSPPKGFDTTAINKSYYNVVLQNILETENEYSKELQTVLSTYLRPLQTSEKLSSANISYLMGNLEEICSFQQMLVQSLEECTKLPEAQQRVGGCFLNLMPQMKTLYLTYCANHPSAVNVLTEHSEELGEFMETKGASSPGILVLTTGLSKPFMRLDKYPTLLKELERHMEDYHTDRQDIQKSMAAFKNLSAQCQEVRKRKELELQILTEAIRNWEGDDIKTLGNVTYMSQVLIQCAGSEEKNERYLLLFPNVLLMLSASPRMSGFIYQGKLPTTGMTITKLEDSENHRNAFEISGSMIERILVSCNNQQDLQEWVEHLQKQTKVTSVGNPTIKPHSVPSHTLPSHPVTPSSKHADSKPAPLTPAYHTLPHPSHHGTPHTTINWGPLEPPKTPKPWSLSCLRPAPPLRPSAALCYKEDLSKSPKTMKKLLPKRKPERKPSDEEFASRKSTAALEEDAQILKVIEAYCTSAKTRQTLNSTWQGTDLMHNHVLADDDQPSLDSLGRRSSLSRLEPSDLSEDSDYDSIWTAHSYRMGSTSRKSCCSYISHQN",0.45,1.24,2.76
"EPS8 (protein, UniProt Q12929 1-822, looked up) Epidermal growth factor …: MNGHISNHPSSFGMYPSQMNGYGSSPTFSQTDREHGSKTSAKALYEQRKNYARDSVSSVSDISQYRVEHLTTFVLDRKDAMITVDDGIRKLKLLDAKGKVWTQDMILQVDDRAVSLIDLESKNELENFPLNTIQHCQAVMHSCSYDSVLALVCKEPTQNKPDLHLFQCDEVKANLISEDIESAISDSKGGKQKRRPDALRMISNADPSIPPPPRAPAPAPPGTVTQVDVRSRVAAWSAWAADQGDFEKPRQYHEQEETPEMMAARIDRDVQILNHILDDIEFFITKLQKAAEAFSELSKRKKNKKGKRKGPGEGVLTLRAKPPPPDEFLDCFQKFKHGFNLLAKLKSHIQNPSAADLVHFLFTPLNMVVQATGGPELASSVLSPLLNKDTIDFLNYTVNGDERQLWMSLGGTWMKARAEWPKEQFIPPYVPRFRNGWEPPMLNFMGATMEQDLYQLAESVANVAEHQRKQEIKRLSTEHSSVSEYHPADGYAFSSNIYTRGSHLDQGEAAVAFKPTSNRHIDRNYEPLKTQPKKYAKSKYDFVARNNSELSVLKDDILEILDDRKQWWKVRNASGDSGFVPNNILDIVRPPESGLGRADPPYTHTIQKQRMEYGPRPADTPPAPSPPPTPAPVPVPLPPSTPAPVPVSKVPANITRQNSSSSDSGGSIVRDSQRHKQLPVDRRKSQMEEVQDELIHRLTIGRSAAQKKFHVPRQNVPVINITYDSTPEDVKTWLQSKGFNPVTVNSLGVLNGAQLFSLNKDELRTVCPEGARVYSQITVQKAALEDSSGSSELQEIMRRRQEKISAAASDSGVESFDEGSSH",0.47,2.62,5.58
